Assay results from US20200087414A1.
Values joined by “and” are separate entries in the source; they are usually repeats but may differ in a detail not shown here. Equal entries are not always repeated.

Experiments:
[1] = biological target: FcgammaRIIIA (CD16a), F158 allotype (UniProt P08637); experiment: SPR
[2] = biological target: neonatal Fc receptor (FcRn) (UniProt P55899); experiment: SPR pH 6.0, Ab captured on goat anti-human IgG, FcRn flowed
[3] = biological target: FcgammaRIIB (CD32b), Y163 allotype (UniProt P31994); experiment: SPR
Sequence of FcgammaRIIB (CD32b), Y163 allotype (P31994 43-217 limits assumed): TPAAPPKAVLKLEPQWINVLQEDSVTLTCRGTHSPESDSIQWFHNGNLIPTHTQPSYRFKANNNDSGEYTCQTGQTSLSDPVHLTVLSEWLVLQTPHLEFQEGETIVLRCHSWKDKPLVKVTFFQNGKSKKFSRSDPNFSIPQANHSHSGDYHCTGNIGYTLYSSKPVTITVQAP

Sequence of neonatal Fc receptor (FcRn) (P55899 24-297 limits assumed, chain 1 of 2): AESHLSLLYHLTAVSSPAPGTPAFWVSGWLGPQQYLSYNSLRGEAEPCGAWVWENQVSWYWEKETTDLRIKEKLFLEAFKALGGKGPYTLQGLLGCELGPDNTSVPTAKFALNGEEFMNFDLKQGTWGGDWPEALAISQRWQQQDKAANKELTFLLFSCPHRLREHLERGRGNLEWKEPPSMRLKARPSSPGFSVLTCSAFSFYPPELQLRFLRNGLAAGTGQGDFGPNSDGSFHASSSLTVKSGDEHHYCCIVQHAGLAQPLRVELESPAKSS
Sequence of neonatal Fc receptor (FcRn) (P61769 21-119 limits assumed, chain 2 of 2, further chain): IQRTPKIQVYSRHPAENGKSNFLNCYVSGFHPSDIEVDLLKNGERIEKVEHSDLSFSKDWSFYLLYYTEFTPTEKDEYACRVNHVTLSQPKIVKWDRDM
Sequence of FcgammaRIIIA (CD16a), F158 allotype (P08637 17-208 limits assumed): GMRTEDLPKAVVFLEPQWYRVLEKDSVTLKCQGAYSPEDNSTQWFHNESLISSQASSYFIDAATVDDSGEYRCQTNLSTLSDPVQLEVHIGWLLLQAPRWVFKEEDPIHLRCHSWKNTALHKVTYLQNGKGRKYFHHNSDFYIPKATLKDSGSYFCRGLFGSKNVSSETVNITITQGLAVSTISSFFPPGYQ

AZ133 (A: L351Y/F405A/Y407V, B: T366L/K392M/T394W) (antibody)
Kd [1]: 420 nM
Kd [2]: 5000 nM

D399C_F405A_Y407V / T366L_K392C_T394W (antibody)
Kd [1]: 510 nM
Kd [3]: 1200 nM

AZ138 (A: F405A/Y407V, B: T366L/K392M/T394W) (antibody)
Kd [1]: 460 nM

AZ3002 (A: T350V/L351Y/F405A/Y407V, B: T350V/T366L/K392M/T394W) (antibody)
Kd [1]: 460 nM
Kd [3]: 1200 nM
Kd [2]: 4300 nM

T350V_L351Y_S400E_F405A_Y407V / T350V_L351Y_T366L_N390R_K392M_T394W (antibody)
Kd [3]: 710 nM

T350V_F405A_Y407V / T350V_T366L_K392M_T394W (antibody)
Kd [3]: 1000 nM

T350V_L351Y_S400R_F405A_Y407V / T350V_T366L_N390E_K392M_T394W (antibody)
Kd [1]: 420 nM
Kd [3]: 890 nM

F405A_Y407V / T366L_T394W (antibody)
Kd [1]: 480 nM

T350V_L351Y_S400R_F405A_Y407V / T350V_T366L_K392M_T394W (antibody)
Kd [3]: 890 nM

Y349C_F405A_Y407V / S354C_T366L_T394W (antibody)
Kd [1]: 580 nM
Kd [3]: 1200 nM

T350V_S400E_F405A_Y407V / T350V_T366L_N390R_K392M_T394W (antibody)
Kd [1]: 450 nM
Kd [3]: 1000 nM

T350V_L351Y_S400E_F405T_Y407V / T350V_T366L_N390R_K392M_T394W (antibody)
Kd [3]: 670 nM

AZ3003 (A: T350V/L351Y/F405A/Y407V, B: T350V/T366L/K392L/T394W) (antibody)
Kd [3]: 990 nM
Kd [2]: 3900 nM

T350V_L351Y_S400E_F405A_Y407V / T350V_T366L_N390R_K392F_T394W (antibody)
Kd [3]: 710 nM

T350V_L351Y_S400R_F405A_Y407V / T350V_T366L_N390D_K392M_T394W (antibody)
Kd [3]: 940 nM

T350V_L351Y_S400E_F405A_Y407V / T350V_T366L_N390R_K392M_T394W (antibody)
Kd [1]: 450 nM and 420 nM
Kd [3]: 900 nM
Kd [2]: 5000 nM

Y349C_T350V_F405A_Y407V / T350V_S354C_T366L_K392M_T394W (antibody)
Kd [1]: 460 nM
Kd [2]: 4100 nM

Herceptin WT (wild-type IgG1 anti-HER-2/neu antibody)
Kd [3]: 1700 nM
Kd [2]: 3700 nM

Y349C_D399C_F405A_Y407V / S354C_T366L_K392C_T394W (antibody)
Kd [1]: 630 nM

Y349C_T350V_L351Y_S400E_F405A_Y407V / T350V_S354C_T366L_N390R_K392M_T394W (antibody)
Kd [1]: 420 nM
Kd [3]: 950 nM

Q347R_T350V_L351Y_S400E_F405A_Y407V / T350V_K360E_T366L_N390R_K392M_T394W (antibody)
Kd [1]: 420 nM
Kd [3]: 920 nM

T350V_L351Y_S400E_F405A_Y407V / T350V_T366L_N390R_K392L_T394W (antibody)
Kd [3]: 910 nM

T350V_L351Y_S400E_F405S_Y407V / T350V_T366L_N390R_K392M_T394W (antibody)
Kd [1]: 420 nM
Kd [3]: 830 nM
